Measured values: patent US20210363241A1 (Eli Lilly, published 2021)

Assays:
[1] = molecular target: T1, Human CD226 on the cell surface of stably transfected HEK 293 cells (human, UniProt Q15762 19-336); assay: cell-based or functional assay
T1 sequence: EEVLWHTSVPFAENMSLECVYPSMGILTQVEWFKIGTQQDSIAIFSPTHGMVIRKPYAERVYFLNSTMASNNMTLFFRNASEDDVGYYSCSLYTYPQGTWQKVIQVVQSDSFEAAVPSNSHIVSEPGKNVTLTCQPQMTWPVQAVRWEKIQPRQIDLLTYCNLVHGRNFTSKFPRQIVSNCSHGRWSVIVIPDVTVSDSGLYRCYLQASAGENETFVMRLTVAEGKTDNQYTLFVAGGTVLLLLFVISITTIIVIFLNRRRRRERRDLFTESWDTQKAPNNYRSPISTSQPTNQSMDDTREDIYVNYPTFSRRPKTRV

[2] = molecular target: T2, Recombinant human CD226-Fc fusion protein (R&D Systems) (human); assay: ELISA, plate coated with human CD226-Fc, anti-human F(ab')2-HRP detection
T2 construct: The reagent was bought from R&D Systems; also called Human CD226-ECD-Fc; Human CD226-Extracellular Domain-Fc
Procedure: The ability of the antibodies disclosed herein to bind human CD226 can be measured by ELISA. To measure binding to human CD226, a 96-well plate (Immulon 2HB) is coated with human CD226-Fc (R&D Systems) overnight at 4° C. Wells are blocked for 2 h with blocking buffer (PBS containing 1% bovine serum albumin). Wells are washed three times with PBS containing 0.1% Tween-20. Antibody 1 or control IgG (100 μL) is then added at different concentrations and incubated at room temperature for 1 h. After washing, the plate is incubated with 100 μL of goat anti-human IgG F(ab′)2-HRP conjugate (Jackson Immuno Research Laboratories) at room temperature for 45 minutes. The plates are washed and then incubated with 100 μL of 3,3′, 5,5′-tetra-methylbenzidine. The absorbance at 450 nm is read on a SpectraMax® microplate reader. The half maximal effective concentration (EC50) is calculated using GraphPad Prism 7 software.

[3] = molecular target: T1, Human CD226 on the cell surface of …; assay: flow cytometry on HEK 293 cells expressing human CD226, antibody at 0.14 ug/mL
Procedure: (§1) The ability of the antibodies disclosed herein to bind to cell surface Human CD226 can be measured using a flow cytometric assay. Human CD226 expressing stable cells are generated by transfecting human-CD226 plasmid DNA into human HEK 293 cells (ATCC) using Fugene-6 reagent (Promega) according to the manufacturer's protocol. Stable cells are selected using 0.5 μg/mL puromycin in Dulbecoo's Modified Eagle's Medium containing 10% fetal bovine serum and 1% GlutaMAX™. For flow cytometry, confluent adherent cells are detached using Gibco® Cell Dissociation Buffer (Life Technologies), washed with complete media, then resuspend in FACS buffer (phosphate buffered saline containing 2.5% fetal bovine serum+1 mM EDTA) and then transferred into a 96 well V bottom plate at a density of 5×10⁴ cells/well. […]
(§2) After washing in FACS buffer, secondary antibody allophycocyanin (APC) conjugated goat anti-human IgG, F(ab′)2 fragment specific antibody (Jackson ImmunoResearch Laboratories) is added at a 1:200 dilution and cells are incubated at room temperature for 30 minutes. […] Flow cytometry data is analyzed using FlowJo® Software. Median fluorescence intensity (MFI) ratio is calculated as the (MFI of Experimental antibody)/(MFI of the control IgG).

[4] = molecular target: T3, Cynomolgus monkey CD226 on the cell surface of stably transfected HEK 293 cells (cynomolgus monkey, UniProt A0A2K5W1Z6 19-336); assay: flow cytometry on HEK 293 cells expressing cynomolgus CD226, antibody at 0.14 ug/mL
T3 construct: whole, on cells; also called Cyno-CD226
T3 sequence: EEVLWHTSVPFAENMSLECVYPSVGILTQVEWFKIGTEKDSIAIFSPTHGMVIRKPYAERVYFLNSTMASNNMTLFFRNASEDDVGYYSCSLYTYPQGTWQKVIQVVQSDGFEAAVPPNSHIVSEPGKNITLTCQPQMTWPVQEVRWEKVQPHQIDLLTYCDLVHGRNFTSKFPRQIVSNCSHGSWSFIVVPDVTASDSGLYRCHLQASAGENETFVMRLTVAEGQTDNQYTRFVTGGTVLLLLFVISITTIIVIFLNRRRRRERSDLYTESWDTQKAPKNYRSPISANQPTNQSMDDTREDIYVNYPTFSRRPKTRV
Procedure: as §1, with “surface cynomolgus monkey” for “surface Human”, “assay. Cynomolgus monkey” for “assay. Human”, “transfecting Cyno-CD226” for “transfecting human-CD226”
as §2

[5] = molecular target: T2, Recombinant human CD226-Fc fusion …; assay: SPR (Biacore T200), human CD226-Fc amine-coupled to chip, antibody injected at 1.95-1000 nM, 25 C, steady state fit
Procedure: A Biacore T200 instrument can be used to measure the kinetics of immobilized human CD226-Fc binding to Antibody 1. Recombinant human CD226-Fc fusion protein (R&D Systems) is covalently immobilized to a CMS sensor chip via amine coupling (GE Healthcare). CD226 antibody testing is performed at a flow rate of 100 μL/min in HBS-EP+buffer. Samples are injected at various concentrations and measurements obtained at 25° C. The surface is regenerated after each sample injection with 10 mM Glycine-HCl pH 2.1 at flow rate of 10 μL/min for 30 seconds and then stabilized with buffer for 10 seconds. Sensorgrams of concentrations ranging from 1.95 nM to 1000 nM are evaluated using Biacore T200 software. The equilibrium dissociation constant (KD) or binding affinity constant is calculated from steady state fit. In experiments performed essentially as described above, Antibody 1 binds to human CD226 with the affinity constants illustrated in Table 2.

NF-kB luciferase reporter EC50 [1]: 4.11 nM
EC50 [2]: 0.1 nM
MFI ratio (MFI of antibody / MFI of control IgG) [3]: 851
MFI ratio (MFI of antibody / MFI of control IgG) [4]: 2920
Kd [5]: 334 nM
B1: Antibody 1 (antibody, human IgG1, kappa, V domains shown)
VH: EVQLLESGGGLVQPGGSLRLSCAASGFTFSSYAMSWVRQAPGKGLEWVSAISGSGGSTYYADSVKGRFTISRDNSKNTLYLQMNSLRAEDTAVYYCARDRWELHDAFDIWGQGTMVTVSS
VL: VIWMTQSPSSLSASVGDRVTITCRASQSISSYLNWYQQKPGKAPRLLIYRASTLQSGVPSRFSGDGSGTHFTLTISSLQPEDFATYYCQQSYSTPDTFGQGTKVEIKR
notes: also called anti-human CD226 agonist antibody; human anti-human CD226 IgG1-effector null (IgG1-EN) antibody
